Assay results reported in US20240158538A1 (HUMMINGBIRD BIOSCIENCE HOLDINGS PTE, published 2024).
Substitutions are numbered along the chain they refer to. Like-named read-outs stand apart in the source and are kept apart here. Each block holds one binder with its values, some of them ahead of it.

What was measured:
B7H7 (ELISA coat) [1] = target: T1, B7H7 (ELISA coat) (human, UniProt Q9UM44 23-344, limits assumed); experiment: ELISA, plate coated with B7H7
T1 construct: Species read from the list 'human VISTA, PD-1, PD-L1, ...'; also called HHLA2
T1 sequence (looked up): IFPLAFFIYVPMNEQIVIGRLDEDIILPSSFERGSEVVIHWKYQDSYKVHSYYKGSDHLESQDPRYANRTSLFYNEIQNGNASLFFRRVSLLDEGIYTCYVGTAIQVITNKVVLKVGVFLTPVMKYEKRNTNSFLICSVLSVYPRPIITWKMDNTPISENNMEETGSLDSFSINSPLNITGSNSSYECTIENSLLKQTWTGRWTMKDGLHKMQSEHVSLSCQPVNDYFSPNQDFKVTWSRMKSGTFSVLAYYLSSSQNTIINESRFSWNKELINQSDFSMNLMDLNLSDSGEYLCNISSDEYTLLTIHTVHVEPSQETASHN

PD-1 (ELISA coat) [2] = target: T2, PD-1 (ELISA coat) (human, UniProt Q15116 25-167, limits assumed); experiment: ELISA, plate coated with PD1
T2 construct: Species read from the list 'human VISTA, PD-1, PD-L1, ...'

B7H6 (ELISA coat) [3] = target: T3, B7H6 (ELISA coat) (human, UniProt Q68D85 25-262, limits assumed); experiment: ELISA, plate coated with B7H6
T3 construct: Species read from the list 'human VISTA, PD-1, PD-L1, ...'; also called NCR3LG1
T3 sequence (looked up): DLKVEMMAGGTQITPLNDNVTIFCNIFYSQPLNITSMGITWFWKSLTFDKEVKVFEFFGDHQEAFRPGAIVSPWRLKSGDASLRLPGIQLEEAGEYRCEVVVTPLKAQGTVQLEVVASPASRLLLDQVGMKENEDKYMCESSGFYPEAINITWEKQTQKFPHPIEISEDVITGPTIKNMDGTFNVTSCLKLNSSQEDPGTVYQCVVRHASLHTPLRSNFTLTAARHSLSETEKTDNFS

[4] = target: T4, human VISTA polypeptide (ELISA coat) (human, UniProt Q9H7M9 33-194); experiment: ELISA, plate coated with B7H5 (VISTA)
T4 construct: Recombinant protein (Sino Biological) coated on ELISA plates; construct not described

human PD-L1 (ELISA coat) [5] = target: T5, human PD-L1 (ELISA coat) (human, UniProt Q9NZQ7 19-239); experiment: ELISA, plate coated with B7H1 (PDL1)
B7H3 (ELISA coat) [6] = target: T6, B7H3 (ELISA coat) (human, UniProt Q5ZPR3 29-461, limits assumed); experiment: ELISA, plate coated with B7H3
T6 construct: Species read from the list 'human VISTA, PD-1, PD-L1, ...'; also called CD276
T6 sequence (looked up): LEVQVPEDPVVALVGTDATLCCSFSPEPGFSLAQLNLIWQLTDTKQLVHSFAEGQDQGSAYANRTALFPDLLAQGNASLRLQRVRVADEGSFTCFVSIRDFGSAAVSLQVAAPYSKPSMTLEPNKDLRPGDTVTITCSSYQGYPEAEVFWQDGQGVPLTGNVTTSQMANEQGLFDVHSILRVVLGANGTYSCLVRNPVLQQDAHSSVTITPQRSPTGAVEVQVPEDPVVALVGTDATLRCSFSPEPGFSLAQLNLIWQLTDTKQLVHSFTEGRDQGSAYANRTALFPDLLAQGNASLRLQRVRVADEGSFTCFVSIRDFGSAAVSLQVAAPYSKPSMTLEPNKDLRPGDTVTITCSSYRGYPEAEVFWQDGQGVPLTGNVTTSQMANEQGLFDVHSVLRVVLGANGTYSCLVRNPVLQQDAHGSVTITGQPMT

B7H4 (ELISA coat) [7] = target: T7, B7H4 (ELISA coat) (human, UniProt Q7Z7D3 25-258, limits assumed); experiment: ELISA, plate coated with B7H4
T7 construct: Species read from the list 'human VISTA, PD-1, PD-L1, ...'; also called VTCN1
T7 sequence (looked up): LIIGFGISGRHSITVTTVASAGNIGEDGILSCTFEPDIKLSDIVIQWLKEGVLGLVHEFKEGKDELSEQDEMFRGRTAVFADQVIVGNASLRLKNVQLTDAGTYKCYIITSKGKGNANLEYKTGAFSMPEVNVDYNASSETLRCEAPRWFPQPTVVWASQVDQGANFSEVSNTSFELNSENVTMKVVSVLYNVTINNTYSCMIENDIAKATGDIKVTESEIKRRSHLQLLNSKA

CTLA4 (ELISA coat) [8] = target: T8, CTLA4 (ELISA coat) (human, UniProt P16410 36-162, limits assumed); experiment: ELISA, plate coated with CTLA4
T8 construct: Species read from the list 'human VISTA, PD-1, PD-L1, ...'

B7H4 (ELISA coat) [9] = target: T7, B7H4 (ELISA coat); experiment: ELISA, plate coated with B7H4; remark: listed apart in the source
B7H6 (ELISA coat) [10] = target: T3, B7H6 (ELISA coat); experiment: ELISA, plate coated with B7H6; remark: listed apart in the source
PD-1 (ELISA coat) [11] = target: T2, PD-1 (ELISA coat); experiment: ELISA, plate coated with PD1; remark: listed apart in the source
B7H7 (ELISA coat) [12] = target: T1, B7H7 (ELISA coat); experiment: ELISA, plate coated with B7H7; remark: listed apart in the source
human PD-L1 (ELISA coat) [13] = target: T5, human PD-L1 (ELISA coat); experiment: ELISA, plate coated with B7H1 (PDL1); remark: listed apart in the source
CTLA4 (ELISA coat) [14] = target: T8, CTLA4 (ELISA coat); experiment: ELISA, plate coated with CTLA4; remark: listed apart in the source
B7H3 (ELISA coat) [15] = target: T6, B7H3 (ELISA coat); experiment: ELISA, plate coated with B7H3; remark: listed apart in the source
CTLA4 (ELISA coat) [16] = target: T8, CTLA4 (ELISA coat); experiment: ELISA, plate coated with CTLA4; remark: listed apart in the source
B7H4 (ELISA coat) [17] = target: T7, B7H4 (ELISA coat); experiment: ELISA, plate coated with B7H4; remark: listed apart in the source
B7H3 (ELISA coat) [18] = target: T6, B7H3 (ELISA coat); experiment: ELISA, plate coated with B7H3; remark: listed apart in the source
PD-1 (ELISA coat) [19] = target: T2, PD-1 (ELISA coat); experiment: ELISA, plate coated with PD1; remark: listed apart in the source
B7H6 (ELISA coat) [20] = target: T3, B7H6 (ELISA coat); experiment: ELISA, plate coated with B7H6; remark: listed apart in the source
human PD-L1 (ELISA coat) [21] = target: T5, human PD-L1 (ELISA coat); experiment: ELISA, plate coated with B7H1 (PDL1); remark: listed apart in the source
B7H7 (ELISA coat) [22] = target: T1, B7H7 (ELISA coat); experiment: ELISA, plate coated with B7H7; remark: listed apart in the source

T5 sequence (Q9NZQ7 19-239 limits assumed): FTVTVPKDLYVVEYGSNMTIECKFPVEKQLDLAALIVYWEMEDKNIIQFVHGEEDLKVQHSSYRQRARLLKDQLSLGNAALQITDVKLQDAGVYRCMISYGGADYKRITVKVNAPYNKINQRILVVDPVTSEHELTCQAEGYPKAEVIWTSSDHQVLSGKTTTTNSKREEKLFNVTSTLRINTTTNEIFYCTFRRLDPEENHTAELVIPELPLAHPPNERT
T2 sequence (Q15116 25-167 limits assumed): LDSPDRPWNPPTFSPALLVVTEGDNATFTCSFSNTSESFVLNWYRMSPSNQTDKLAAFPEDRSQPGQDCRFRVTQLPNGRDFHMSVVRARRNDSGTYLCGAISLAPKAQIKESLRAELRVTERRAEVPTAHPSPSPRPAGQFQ
T8 sequence (P16410 36-162 limits assumed): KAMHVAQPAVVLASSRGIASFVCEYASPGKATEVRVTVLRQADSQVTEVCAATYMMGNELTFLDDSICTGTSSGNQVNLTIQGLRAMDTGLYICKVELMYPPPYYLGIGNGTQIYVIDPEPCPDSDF

EC50 (read off the curve) [4]: ~20 pM
B1: anti-VISTA clone V4-C28 IgG1 (antibody, V domains shown)
VH: QVQLQESGPGLVKPSDTLSLTCTVSGYSITSDYTWNWIRQTPGKGLEWIGHITYSGSVSYNPSLRSRVTISRDTSKNQFSLKLSSVTAADTATYSCARALYYPWYFDVWGTGTTVTVSS
VL: EIVLTQSPATLSLSPGERATLSCRASSSVGYIHWYQQKPGQAPRPLIYATSYRATGIPARFSGSGSGTDNTLTISSLEPEDSAVYYCQQWSSYPPITFGGGTKLEVKR
notes: Human IgG1/kappa
binding result (B7H7 (ELISA coat) [1]): no binding (tested: log -7.5 (about 3e-8 M))
binding result (PD-1 (ELISA coat) [2]): no binding (tested: log -7.5 (about 3e-8 M))
binding result (B7H6 (ELISA coat) [3]): no binding (tested: log -7.5 (about 3e-8 M))
binding result (human PD-L1 (ELISA coat) [5]): no binding (tested: log -7.5 (about 3e-8 M))
binding result (B7H3 (ELISA coat) [6]): no binding (tested: log -7.5 (about 3e-8 M))
binding result (B7H4 (ELISA coat) [7]): no binding (tested: log -7.5 (about 3e-8 M))
binding result (CTLA4 (ELISA coat) [8]): no binding (tested: log -7.5 (about 3e-8 M))

B2: anti-VISTA clone V4-C31 IgG1 (antibody, V domains shown)
VH: B1 VH
VL: B1 VL with S51Y, A54T
notes: Human IgG1/kappa
binding result (B7H4 (ELISA coat) [9]): no binding (tested: log -7.5 (about 3e-8 M))
binding result (B7H6 (ELISA coat) [10]): no binding (tested: log -7.5 (about 3e-8 M))
binding result (PD-1 (ELISA coat) [11]): no binding (tested: log -7.5 (about 3e-8 M))
binding result (B7H7 (ELISA coat) [12]): no binding (tested: log -7.5 (about 3e-8 M))
binding result (human PD-L1 (ELISA coat) [13]): no binding (tested: log -7.5 (about 3e-8 M))
binding result (CTLA4 (ELISA coat) [14]): no binding (tested: log -7.5 (about 3e-8 M))
binding result (B7H3 (ELISA coat) [15]): no binding (tested: log -7.5 (about 3e-8 M))

B3: anti-VISTA clone V4-C30 IgG1 (antibody, V domains shown)
VH: B1 VH
VL: B1 VL with S51Y
notes: Human IgG1/kappa
binding result (CTLA4 (ELISA coat) [16]): no binding (tested: log -7.5 (about 3e-8 M))
binding result (B7H4 (ELISA coat) [17]): no binding (tested: log -7.5 (about 3e-8 M))
binding result (B7H3 (ELISA coat) [18]): no binding (tested: log -7.5 (about 3e-8 M))
binding result (PD-1 (ELISA coat) [19]): no binding (tested: log -7.5 (about 3e-8 M))
binding result (B7H6 (ELISA coat) [20]): no binding (tested: log -7.5 (about 3e-8 M))
binding result (human PD-L1 (ELISA coat) [21]): no binding (tested: log -7.5 (about 3e-8 M))
binding result (B7H7 (ELISA coat) [22]): no binding (tested: log -7.5 (about 3e-8 M))
